Measurements published in the supplement of paper PMC7877785.
± gives the uncertainty stated by the source.

Assay: self-splicing fitness, log relative to wild type (ln ratio); higher = more splicing; Tetrahymena group I intron in knt gene, E. coli kanamycin selection, DiMSum; sequences stand for … in CUCUCU…GGAGGGAAAAGUUAUCAGGCAUGCACCUGGUAGCUAGUCUUUAAACCAAUAGAUUGCAUCGGUUUAAAAGGCAAGACCGUCAAAUUGCGGGAAAGGGGUCAACAGCCGUUCAGUACCAAGUCUCAGGGGAAACUUUGAGAUGGCCUUGCAAAGGGUAUGGUAAUAAGCUGACGGACAUGGUCCUAACCACGCAGCCAAGUCCUAAGUCAACAGAUCUUCUGUUGAUAUGGAUGCAGUUCACAGACUAAAUGUCGGUCGGGGAAGAUGUAUUCUUCUCAUAAGAUAUAGUCGGACCUCUCCUUAAUGGGAGCUAGCGGAUGAAGUGAUGCAACACUGGAGCCGCUGGGAACUAAUUUGUAUGCGAAAGUAUAUUGAUUAGUUUUGGAGUACUCGUGGUCG
Procedure, shortened: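 DiMSum derived fitness as the error-weighted combination of fold changes across replicates, kanamycin versus no kanamycin, normalised to wild type. E. coli BL21(DE3) held the library, which randomised all eight P1ex-region intron nucleotides within the knt kanamycin-resistance gene on pET-22b(+). Six replicate transformations grew overnight at 37°C or 30°C on LB agar with or without 25 μg/mL kanamycin, also containing 100 μg/mL carbenicillin, 50 μM IPTG and 0.2% rhamnose, and pooled colonies were amplicon-sequenced on an Illumina HiSeq 2500.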

| Sequence | self-splicing fitness (ln) (30 °C) | self-splicing fitness (ln) (37 °C) |
| --- | --- | --- |
| GAUUAGCAAUAUUACGGUCG | -1.28 ± 0.11 | -0.366 ± 0.13 |
| GAUUAGCAAUAUUACGGUGG | -2.89 ± 0.2 | -2.88 ± 0.2 |
| GAUUAGCAAUAUUACGUAGU | -3.06 ± 0.15 | -1.34 ± 0.12 |
| GAUUAGCAAUAUUACGUGAG | -1.33 ± 0.073 | 0.0593 ± 0.096 |
| GAUUAGCAAUAUUACGUGAU | -3.04 ± 0.11 | -1.07 ± 0.091 |
| GAUUAGCAAUAUUACGUGCC | 0.747 ± 0.28 | -0.667 ± 0.46 |
| GCAAAGCAAUAUUACGAAAC | -1.75 ± 0.092 | -0.783 ± 0.11 |
| GCAAAGCAAUAUUACGAAUU | -2.67 ± 0.15 | -0.942 ± 0.11 |
| GCAAAGCAAUAUUACGACCU | -1.17 ± 0.13 | 0.204 ± 0.16 |
| GCAAAGCAAUAUUACGAGCC | -2.28 ± 0.28 | – |
| GCAAAGCAAUAUUACGAGCG | -1.06 ± 0.077 | -0.631 ± 0.093 |
| GCAAAGCAAUAUUACGAUGA | -0.578 ± 0.076 | 0.353 ± 0.096 |
| GCAAAGCAAUAUUACGCGCG | -1.55 ± 0.12 | -0.161 ± 0.15 |
| GCAAAGCAAUAUUACGCGUG | -3.41 ± 0.1 | -1.27 ± 0.078 |
| GCAAAGCAAUAUUACGCGUU | -1.96 ± 0.13 | -2.03 ± 0.2 |
| GCAAAGCAAUAUUACGCUUG | -3.98 ± 0.18 | -2.64 ± 0.18 |
| GCAAAGCAAUAUUACGCUUU | -3.49 ± 0.15 | -3.27 ± 0.22 |
| GCAAAGCAAUAUUACGGAUC | -1.26 ± 0.073 | -0.379 ± 0.085 |
| GCAAAGCAAUAUUACGGCCC | -0.121 ± 0.18 | -0.618 ± 0.27 |
| GCAAAGCAAUAUUACGGCUG | -2.43 ± 0.14 | -1.24 ± 0.17 |
| GCAAAGCAAUAUUACGGGUC | -2.55 ± 0.14 | -1.05 ± 0.12 |

| Sequence | self-splicing fitness (ln) (30 °C) | self-splicing fitness (ln) (37 °C) |
| --- | --- | --- |
| GCAAAGCAAUAUUACGGUUC | -2.17 ± 0.089 | -0.948 ± 0.11 |
| GCAAAGCAAUAUUACGUACG | -1.13 ± 0.083 | -1.84 ± 0.13 |
| GCAAAGCAAUAUUACGUAUC | -2.35 ± 0.082 | -1.74 ± 0.076 |
| GCAAAGCAAUAUUACGUGAA | -0.989 ± 0.099 | -0.0746 ± 0.12 |
| GCAAAGCAAUAUUACGUUAA | -1.83 ± 0.14 | -1.45 ± 0.14 |
| GCAAAGCAAUAUUACGUUAC | -2.75 ± 0.19 | -1.3 ± 0.15 |
| GCACAGCAAUAUUACGAACG | -1.53 ± 0.1 | -0.558 ± 0.13 |
| GCACAGCAAUAUUACGAAUC | -1.15 ± 0.076 | -0.69 ± 0.079 |
| GCACAGCAAUAUUACGACCA | -0.551 ± 0.11 | -0.554 ± 0.14 |
| GCACAGCAAUAUUACGACUC | -0.289 ± 0.067 | 0.76 ± 0.083 |
| GCACAGCAAUAUUACGAUCU | -0.54 ± 0.064 | 0.0668 ± 0.085 |
| GCACAGCAAUAUUACGCAGC | – | -1.85 ± 0.21 |
| GCACAGCAAUAUUACGCAUC | -1.07 ± 0.083 | -0.51 ± 0.096 |
| GCACAGCAAUAUUACGCCCG | -1.84 ± 0.17 | -0.0618 ± 0.19 |
| GCACAGCAAUAUUACGCGCA | -0.993 ± 0.099 | -0.327 ± 0.093 |
| GCACAGCAAUAUUACGCUGC | -4.12 ± 0.37 | -2.1 ± 0.3 |
| GCACAGCAAUAUUACGCUGU | -3.33 ± 0.14 | -2.23 ± 0.17 |
| GCACAGCAAUAUUACGGACU | -0.665 ± 0.082 | -0.54 ± 0.086 |
| GCACAGCAAUAUUACGGCUA | -0.204 ± 0.081 | -0.393 ± 0.085 |
| GCACAGCAAUAUUACGGGUA | -1.36 ± 0.055 | -0.723 ± 0.061 |
| GCACAGCAAUAUUACGGUCA | -0.62 ± 0.08 | -0.276 ± 0.074 |
